The values below come from the DeepSol protein solubility set.

This data set is described as follows: soluble on expression in E. coli; label from the status in PepcDB or PDB records.
Turning to “MAHHHHHHMMSNTTSSGKGPTTFMWNSVPPSGDMPLHGCCHSLANYKDEQLILFGGGALHIIFNDVYCFDLKTSTWSYKETTNSEIVAPRISHSAVVHEDKMYVYGGQDLYMPTRFADVLVLDLITFTWSLIQQQATPAPDGPGDRRLHTAHIYRNCMYVLMGEPCNISNSFWFLDLTTLEWHPVHSSGWFGKPILPLLGHSAQVEGDYLYVFGGYHADSARRNGSPVYNNSLFSYHFPSNTWREVVPSSGPRPSPRYASAMAVIRGRVFIYGGDVDGEVYFDDFWCIDTNIPSSAASQSSSSSSYTTSLVAAPPAASSRWIDITLSCGRGRPSARSGHASAVAQGCLFVVGGELPGDRDVVYYSNRTYRYPLGYLTRLSLVELSSLWLAKCNPANIWMLDTQIPRHVRQLLVRNLNAQDRESTDDMMPCTRVVC”, the “soluble on expression in E. coli” value is given as “not soluble”.
As for “MRRVFSSQAIQTAIEKSLPDLQKIVGNSSVRTQESVRRQFARDESHFIAPPPAVVLEPTNVEQVSEILKLCNDRAIPVVPFGTGTGLEGGSMSTLGGICISTQQIIGDPVLREQDFVCSVKPSTTRIALNDAIKNSGLFFPVDPGADASVCGMVATSASGTNAIRYGTMKENVVNLEVVLADGTIIDTKGKGRCPRKSSAGFNFTELFVGSEGTLGIITEATVKVHPRPQFLSAAVCSFPTVHEAASTVVEVLQWNIPVARIELLDTVQIQACNSYSSLNLRESPTLFIEFHGSNEKEVADQTSAVEDICKSHEALDFDSGASPDKRATLWKARHNAYYAALAMRTGARGFTTDVCVPISKLADVISETRSDLDEHEILGTVVGHVGDGNFHVILPTIEEDKTEHRKIQSFSDRLVRRALAADGTCTGEHGIGLGKRKYLREELGENTVRLMHTIKHALDPNNIMNPGKVLPEL”, the entry is “soluble”.
As for “MRNLLQKCFKWQWLVCLAVGCCFSSCKDDEESTSGYDPNKPIVLTDFYPPEGKLATQVILNGSNFGDSKENVKVFFNDKEASVISVKDDRMLVLAPKRASTIEDPECVVKVQVHEQIEEYKQTFDYYIQTTVTTLVGGSTSAQVNPTGTIPLSEAQFRANIDRCICVDQDKNVFFLVDNDGKFAAFMLNEEADKLISLKSDINALFNSPVLGYNSKDDIVYQFWANRDSHEVYYFDPKTDYAPTTAISSISWDDPNFPNIEGFGVWAAKCNFTMGPDGKMYSRMLGGNLVRIDVENARGENLTNGDLVGTKDGSAYGLVFDPQDENVFYFSNNDKHCIYKYDLRTKECACWAGQEGKSGYLDGPIGQAMFNKPGQMCVDSEGNIILTDTENHCIRKITMSTGYVSTLAGKPQNSGYVNGSAEDAQFKKPLGICIDNDDVMYIGDSENRAIRRLAVELEHHHHHH”, the “soluble on expression in E. coli” value was “soluble”.
As for “SSENQKEVSPPQAISVKSEASSSIFSKPISTSSPAGLAAAQRVTPGKLSTLLLEMGPLAIRHITQTLCLDIPCFKDLSSSKQRRLIMSAMESGDKEKSVVFEKIGWGQWSAKRVDPANFDKELEATNFANAKVKDLISQESQRRKSNNSNSNSGGKVEMPMKVEHNITNIDGATTPPTAVASTTIPVNIKRSKSPLAAANVVYIDENALASEDEDEEFDEDDHHLHYQNKSRNSSNNFGKSSNGDPYSFGRRRSQVVFADSTPENIEHEIIAQKIRPLLRNRRRSSIKPHTPFISKLNTHQDSSYLSPNTTSTTTPSNNNSNSNQAKIDLEKLTATSEPTSRRASRLSVSKESSIRSTLFPNKNYLIVTTNPNSKATSVSTSPKLEEQMNVSSNPIVLSDKEKHRVASQHLNGESSPQLVPHSHHQPHSDTDEEDWESIGAASLRNNSLAPNIDSVASSTNGVVSPKPTNPSFTNSQNGDIEPPLQHDQQKHEQQPRNGEDNSAAFLLMSLKS”, the entry is “soluble”.
“MKLVFYGAGNMAQAIFTGIINSNNLNANDIYLTNKSNEQALKSFAEKLGVNYSYDDEALLKDADYVFLGTKPHDFENLANRIREHITNDNRFISIMAGLSIDYIRQQLNTNNPLARIMPNTNAQVGHSVTGISFSNNFDPKSKNEVDELINAFGSVIEVSEEHLHQVTAITGSGPAFLYHVFEQYVKAGTELGLERNQVEESIRNLIIGTSKMIERSDLSMSQLRKNITSKGGTTQAGLDALSQYDIVSMFEDCLGAAVNRSMELSHKEDELEHHHHHH”: the “soluble on expression in E. coli” value was “soluble”.
Take “MQDTIFLKGMRFYGYHGALSAENEIGQIFKVDVTLKVDLSEAGRTDNVIDTVHYGEVFEEVKSIMEGKAVNLLEHLAERIANRINSQYNRVMETKVRITKENPPIPGHYDGVGIEIVRENK”: the “soluble on expression in E. coli” value is “soluble”.
